Data set [1] concerns C3H 10T1/2(clone 8) cells. Description: In vitro transformation assay (MCA-induced). It counts as cell-based. Conditions: MCA 1 μg/ml 24 hr, then conjugates 1.0 μg/ml for first three weeks. Here is the method: Transformation assays were carried out using C3H 10T1/2(clone 8) cells according to the published recommendations [Reznikoff, C. A. et al. (1973) Cancer. Res. 33, 3239–3249; Reznikoff, C. A. et al. (1973) Cancer. Res. 33, 3231–3238]. Stock cultures of mycoplasma-free cells were maintained by passing 50,000 cells per 75 cm^2 flask every seven days. Using this schedule, the cells were always passed approximately 2 days before reaching confluence. The stock culture was grown in Eagle's basal medium supplemented with 10% FBS, penicillin (100 units), and streptomycin (100 μg) and used for the transformation assays at passages of 9 to 14. The cells were passed by treating the stock cells with trypsin (0.1%) in PBS for 5 min and quenching the trypsin with 5 ml of the medium. This procedure was adapted to minimize spontaneous transformation in the stock cultures and maximize the plating efficiency in the petri dishes. The FBS stock used in the cultures was pre-screened to ensure that the serum was able to support the expression and the growth of the transformed cells.
For the transformation assays, C3H 10T1/2 cells (1000/dish) were seeded into 60 mm petri dishes and allowed to grow in a humidified 5% CO2 atmosphere in Eagle's basal medium, supplemented with 10% FBS, penicillin (100 units), and streptomycin (100 μg), for 24 hr. Subsequently, the cells were initiated by treatment with 25 μl of the 3-methylcholanthrene (MCA) in acetone stock solution ([…]) to a final concentration of 1 μg/ml of MCA (5 μg/5 ml). The cells were allowed to grow in the presence of the carcinogen or solvent for 24 hr, and the medium in each dish was then replaced with fresh medium containing no carcinogen or solvent. The medium in the dishes was replaced twice per week for the first two weeks of the assay, and thereafter once a week for the remainder four weeks of the assay. In the experiments designed to determine the transformation inhibitory activity of the conjugates, the cells were maintained in the medium containing the conjugates (1 μg/ml) for the first three weeks of the assay; thereafter, the cells were maintained in medium containing no added conjugates.
Six weeks after the carcinogen treatment, the cells were inspected under a microscope for adherence to the culture dishes and were washed with PBS and then fixed in 100% methanol. The fixed monolayers were then stained with Giemsa stain. 20 dishes per group were treated in each experiment. In addition to the test groups, all the transformation assays contained at least three other groups: negative control (not treated with carcinogen or solvent), acetone control (treated with 25 μl of acetone), and positive control [treated with MCA (1 μg/ml) in 25 μl of acetone]. The transformed foci (>3 mm in diameter) in the plates were studied under a microscope and classified according to published guidelines as types I, II, or III [Landolph, J. R. (1985) Transfomatin assay of established cell lines: Mechanism and Application (ed. Kakunaga, T., and Yamasaki, H.) IARC Scientific Publications, Lyon, France pp. 185–201]. Briefly, type III foci were dense, multilayered, basophilic, areas of cell growth which stained to a deep blue color with Giemsa and had rough criss-crossed edges. Type II foci were also dense, multilayered, areas of cell growth, but were stained to a purple color with Giemsa and had smoother, more defined edges compared to Type III foci. Type I foci were not scored in the assay.
BBI, either as the free protein or in conjugated form to palmitic or oleic acid, was added to the cultures at 1.0 μg/ml for the first three weeks of the transformation assay period starting immediately after the MCA treatment. MCA-treated cells were exposed to 3-methylcholanthrene, dissolved in 25 /μl of acetone, at a concentration of 1 μg/ml for 24 hr. Acetone-treated cells were exposed to 25 μl of acetone for 24 hr only. […]

The nature of data set [2]: Skin absorption of 125I-labeled BBI or BBIssPal. Conditions: 5 μl of 0.5 mg/ml on 0.38 cm^2, 30 minutes, 23° C.
The conditions of data set [3]: cited from earlier work.

B1: BBI: hydrophilic protein which has low uptake into cells and is not orally bioavailable; used for chemoprevention (protein, UniProt P01055 40-110, looked up)
Bowman-Birk type proteinase …: DDESSKPCCDQCACTKSNPPQCRCSDMRLNSCHSACKSCICALSYPAQCFCVDITDFCYEPCKPSEDDKEN
Regarding B1, in data set [1], the “transformed foci in the dishes scored” value is “no transformed foci”. Further, in data set [1] (scored at six weeks), the “Fraction of dishes containing transformed foci” value came out at 0 and the “No. of dishes with transformed foci/No. of dishes” value is given as 0/20. In addition, the “absorption into the mouse skins” value in data set [2] amounted to 0.14 μg/cm^2. The “oral bioavailability” value in data set [3] is “not orally bioavailable”. Moreover, the “stability in the GI tract” value in data set [3] (mammalian proteases in the gut, Yavelow et al. 1983) is reported as “stable in the GI tract”.

The values are drawn from US7052704B2, “Methods and compositions for lipidization of hydrophilic molecules” (University of Southern California, priority 1995, dated 2006).
